The chains are these.
B1: mRNA-splicing (parent)
chain: AGUUGCUGCUGGGAGCUCCAGCACAGUGAAAUGGACAGAAGGGCAGAGCAA

The variants in the series derive from B1. The series can be described thus: exon inclusion enrichment index; higher = more inclusion; WT1 exon 5 minigene, HEK293.
In the case of C6A U7C C9A U10C U27A G28A, the “exon inclusion enrichment index” value turned out to be 2.98.

In the case of G5C C6A U7C G8A U10A C19U, the “exon inclusion enrichment index” value was 0.0124.

Consider G5A U7C G8A U10C C22A A23C, for which the “exon inclusion enrichment index” value came out at 3.53.

As to G5A U7C G8A U10C C22A A23U, the “exon inclusion enrichment index” value came to 2.17.

Regarding G5A C6G U7G, the “exon inclusion enrichment index” value came to 0.00284.

As to U32C G33A, the “exon inclusion enrichment index” value is 0.0354.

Take C6A U7A G8U C9A: the “exon inclusion enrichment index” value came out at 0.467.

With G42C G43U, the “exon inclusion enrichment index” value is 0.634.

For the variant G5U G8U C9U G38U A39G, the “exon inclusion enrichment index” value was determined as 0.0405.

As for G5A C6G U7G C9A C44U A45G, the “exon inclusion enrichment index” value worked out at 0.00135.

For G5C C6A U7C G8A U10A U17G, the “exon inclusion enrichment index” value was 0.0684.

Consider G5A C6G U7G C9A U10C G11A, for which the “exon inclusion enrichment index” value amounted to 0.0011.

As for G5C C6U G8C C9U U10C C24G A25G, the “exon inclusion enrichment index” value turned out to be 0.981.

With U4C G5U C6G U7G C9A, the “exon inclusion enrichment index” value was 0.461.

Regarding A29G A30U, the “exon inclusion enrichment index” value amounted to 0.0289.

Turning to G5C C6A U7C G8A U10A G13U, the “exon inclusion enrichment index” value stood at 0.00463.

In the case of C6A U7A C9A U10A C16G, the “exon inclusion enrichment index” value stood at 0.188.

On to G5A U7C G8A U10C G41U, for which the “exon inclusion enrichment index” value stood at 2.09.

In the case of G5U G8U C9U G38A A39G, the “exon inclusion enrichment index” value turned out to be 0.151.

Regarding G5C C6A U7C G8A U10A G43A, the “exon inclusion enrichment index” value came out at 0.595.

For the variant G5C C6A U7C G8A U10A C16A U17A, the “exon inclusion enrichment index” value is 0.05.

As to G5U G8A C9A, the “exon inclusion enrichment index” value turned out to be 0.204.

For the variant G5U G8A C9G, the “exon inclusion enrichment index” value is 0.061.

Take G5C C6A U7C G8A U10A G34U A35U: the “exon inclusion enrichment index” value came out at 0.00489.

Turning to G5C C6G G8U C9U, the “exon inclusion enrichment index” value is 1.08.

With G13A A14U, the “exon inclusion enrichment index” value was 0.0995.

In the case of C6A U7C C9A U10C C24G, the “exon inclusion enrichment index” value was found to be 3.61.

Turning to G2C G5C C6U G8C C9U U10C, the “exon inclusion enrichment index” value worked out at 1.41.

G5C C6A U7C G8A U10A A39C A40U: the “exon inclusion enrichment index” value came out at 0.0879.

Turning to G5A U7C G8A U10C C44U, the “exon inclusion enrichment index” value stood at 0.581.

Take A45C: the “exon inclusion enrichment index” value was found to be 0.223.

Turning to G5U G8U C9U C18U C19U, the “exon inclusion enrichment index” value stood at 0.000815.

On to G5A U7C G8A U10C C24U A25G, for which the “exon inclusion enrichment index” value was found to be 3.39.

With C16G, the “exon inclusion enrichment index” value is 0.103.

G5A U7C G8A U10C A23C C24G: the “exon inclusion enrichment index” value was 3.75.

Regarding G5A U7C G8A U10C C44G A45U, the “exon inclusion enrichment index” value came out at 1.92.

As to G34U, the “exon inclusion enrichment index” value amounted to 0.0244.

On to G5A C6G U7G C9A A39C A40U, for which the “exon inclusion enrichment index” value is 0.00672.

For G5C C6A U7A G8C U10A, the “exon inclusion enrichment index” value came to 0.514.

Regarding C6A U7A C9A U10A A25U G26C, the “exon inclusion enrichment index” value was determined as 0.956.

In the case of G5U G8U C9U U17C, the “exon inclusion enrichment index” value worked out at 0.0866.

As for G5A C6G U7G C9A G41A, the “exon inclusion enrichment index” value is 0.0013.

As to C6A G8U C9A U10C, the “exon inclusion enrichment index” value was determined as 0.728.

Consider G5A C6G U7G C9A A35U, for which the “exon inclusion enrichment index” value came out at 0.000728.

As to G5A C6G U7G C9A A35C, the “exon inclusion enrichment index” value worked out at 0.00244.

On to G5C C6G U7C U10C G12C G13A, for which the “exon inclusion enrichment index” value came to 0.8.

C6A U7C C9A U10C G38C A39C: the “exon inclusion enrichment index” value was determined as 3.

Consider C6A U7C C9A U10C C18U, for which the “exon inclusion enrichment index” value was 2.7.

With U3A C6A U7C C9A U10C, the “exon inclusion enrichment index” value was determined as 3.37.

For the variant G5A C6G U7G C9A G11A G12C, the “exon inclusion enrichment index” value turned out to be 0.00102.

Regarding G5U G8U C9U C44U A45G, the “exon inclusion enrichment index” value worked out at 0.043.

For C6A U7C C9A U10C U27C G28A, the “exon inclusion enrichment index” value is 3.15.

Turning to G5C C6A U7C G8A U10A A20C, the “exon inclusion enrichment index” value is 0.142.

As for G5U G8U C9U C36G A37C, the “exon inclusion enrichment index” value is 0.0336.

For G5A C6G U7G C9A A14G G15U, the “exon inclusion enrichment index” value came out at 0.00301.

G5C C6U U7C G8C C9U U10C: the “exon inclusion enrichment index” value is 1.73.

With G5A C6U U7A G8U C9U U10A, the “exon inclusion enrichment index” value turned out to be 0.00135.

Turning to U3G U4G, the “exon inclusion enrichment index” value came out at 0.00805.

U3G U4C: the “exon inclusion enrichment index” value was determined as 0.16.

Turning to C6A U7A C9A U10A C19U, the “exon inclusion enrichment index” value is 0.0565.

Take C6A U7C C9U: the “exon inclusion enrichment index” value turned out to be 1.42.

In the case of U3A U4A G5U G8U C9U, the “exon inclusion enrichment index” value is 0.296.

Regarding G5C C6A U7A G8A U10A, the “exon inclusion enrichment index” value worked out at 0.0993.

With G5U G8U C9U C16G U17G, the “exon inclusion enrichment index” value amounted to 0.00571.

Consider G5C C6G U7C U10C G13U A14G, for which the “exon inclusion enrichment index” value was found to be 1.28.

For the variant G5U G8U C9U A23U, the “exon inclusion enrichment index” value is 0.0459.

Regarding G5A C6G U7A G8C C9A, the “exon inclusion enrichment index” value was 0.0442.

On to C44U A45C, for which the “exon inclusion enrichment index” value was found to be 0.266.

Regarding G5C C6A U7C G8A U10A G11U, the “exon inclusion enrichment index” value is 0.955.

Turning to G5C C6A U7C G8A U10A A14C G15C, the “exon inclusion enrichment index” value worked out at 0.00871.

On to G5C C6A U7C G8A U10A C22U A23C, for which the “exon inclusion enrichment index” value was 0.0379.

On to G5A C6G U7G C9A A47U G48U, for which the “exon inclusion enrichment index” value was 0.000738.

For the variant G2A G5U G8U C9U, the “exon inclusion enrichment index” value worked out at 0.53.

G5A U7C G8A U10C C18A: the “exon inclusion enrichment index” value was determined as 1.35.

Consider U3G G5U G8U C9U, for which the “exon inclusion enrichment index” value came to 0.0452.

As to G5A C6G U7G C9G, the “exon inclusion enrichment index” value came to 0.00209.

For the variant G5A C6G U7G C9U, the “exon inclusion enrichment index” value was determined as 0.00241.

Consider C6A U7A C9A U10A G13C A14G, for which the “exon inclusion enrichment index” value was determined as 1.42.

For C6A U7C C9A U10A, the “exon inclusion enrichment index” value was determined as 1.36.

Take C6A U7C C9A U10C G11C G12U: the “exon inclusion enrichment index” value worked out at 2.2.

On to G5C C6G U7C U10C G34U A35U, for which the “exon inclusion enrichment index” value stood at 1.2.

In the case of G5A C6U U7A G8U C9A A35C C36U, the “exon inclusion enrichment index” value was 0.00346.

Regarding G5A C6G U7G C9A C44A A45U, the “exon inclusion enrichment index” value was found to be 0.0154.

As to U4G G5U C6U G8C C9U U10C, the “exon inclusion enrichment index” value is 0.824.

Values taken from the RNAGym collection of RNA variant scans (doi:10.1101/gr.219683.116).
